Data set [1] relates to L1210 leukemia cells. The data set is described as follows: Survival of mice transplanted with L1210 leukemia cells (FIG. 4). To be noted: DBA2 mice; AraC 1000 mg/kg IP Days 2, 5, 8; DNase II 15 or 45 mg/kg/day IP; alone or combined. The class given is in vivo. The procedure:
Treatment with DNase and AraC was initiated on Day 1 of experiment. Cytosine arabinoside (AraC; Cytosar, Pfizer) was injected IP at a dose of 1000 mg/kg on Days 2, 5 and 8. The injected doses were considered adequate for the model and injection route based on prior experiments (13-14). DNase II (Wornington) was injected IP at doses of 15 mg/kg/day and 45 mg/kg/day on Days 1, 3, 5, 8, 10, 12, 15, 17, and 19.
Animals were randomized into 6 experimental groups of 6 mice per group as follows: • 1. Group I: negative control (no treatment); • 2. Group II: positive control (animals treated with AraC); • 3. […]; • 4. Group IV: animals treated with AraC and 45 mg/kg DNase; • 5. Group V: animals treated with 15 mg/kg DNase, no AraC; • 6. Group VI: animals treated with 45 mg/kg DNase, no AraC.
The vertical axis of FIG. 4 represents the survival measured in days after implantation with the L1210 leukemia cells. The six experimental groups are represented on the horizontal axis: 1—Negative Control; 2—AraC (positive control); 3—AraC+DNase II 15 mg/kg; 4—AraC+DNase II 45 mg/kg; 5—DNase II 15 mg/kg 6—DNase II 45 mg/kg.

Data set [2] concerns gastrointestinal lesions. In kind it is in vivo, rats. To be noted: for Total number of lesions per group: 16 rats. As to the method:
On Day 1, Etoposide (LANCE) 200 mg/kg and 5-fluorouracil (5-FU; EBEWE) 400 mg/kg were given orally via feeding needle in 500 μl of a 9% glucose solution. Animals were divided into 4 groups of 16 rats each. […] Group I: IV placebo (WFI); • 2. Group II: human recombinant DNase I (Pharmsynthez OJSC) at 1.5 mg/kg (3000 KU/kg) dose IV; • 3. Group III: human recombinant DNase I (Pharmsynthez OJSC) at 50 mg/kg (100000 KU/kg) dose IV; • 4. Group IV: cimetidine solution (Gedeon Richter) at 50 mg/kg dose IV.
36 hours later, all animals were euthanized and their stomachs were removed and analyzed for the presence of erosions and hemorrhages using an automated video analyzer system.

Data set [3] has as its system Wistar male rats. The note with it: for Number of dead/out of total in group: monitored 2 weeks. The text has this:
Group I: control group (no Doxorubicin, no DNase); • 2.
Animals were monitored during 2 weeks from the beginning of experiment for survival and weight.

The test system of data set [4] is white blood cell count (WBC). The data set is described as follows: Cyclophosphamide-induced neutropenia in mice (FIG. 3). The class given is in vivo. To be noted: for Effect on typical early phase decline in WBC count (FIG. 3): cyclophosphamide 200 mg/kg IP Day 1, DNase I 25 mg/kg/day IV or GM-CSF 200 μg/kg/day SC on Days 2-5. As to the method:
30 female 10-12 week old BALB/C mice (obtained from Rappolovo animal house) were used in this experiment. […] Starting on Day 2, mice were then treated as follows: • 1. Group I (n=10): control (no treatment); • 2. […] Group III (n=10): animals were treated with human recombinant GM-CSF (Neostim, Pharmsynthez OJSC) at 200 μg/kg/day dose injected subcutaneously (SC) on Days 2-5. […] The graph in FIG. 3 summarizes the dynamics of the white blood cell count (WBC) in the three experimental groups. The vertical axis represents WBC with units of 10^9 WBC/L. The horizontal axis represents the number of days after cyclophosphamide injection.

Data set [5] deals with thymocytes. The data set is described as follows: Con A-induced lymphocyte blast transformation of thymocytes from paclitaxel-treated mice. In kind it is in vivo. To be noted: paclitaxel 20 mg/kg IV, DNase gamma 2 mg/kg IP. The procedure:
10 male 6-week-old (CBAxCS7Bl6) F1 mice (obtained from Rappolovo animal house) were given a single 20 mg/kg dose of paclitaxel (Paclitaxel-Teva) IV. A group of 5 paclitaxel treated mice were injected IP 1 hour later with recombinant mouse DNase gamma (USCN Life Science Inc.) at 2 mg/kg dose IP. A group of 5 untreated mice were injected IP at the same time with 1 ml of placebo (WFI) to serve as the control. All mice were killed 24 hours later by cervical dislocation. The thymuses from each group were collected and homogenized in a separator in RPMI 1640 media supplemented with 10% fetal calf serum. The suspension of thymocytes was filtered and sedimented in a centrifuge at 400×g for 2 minutes and then resuspended with the same media. Thymocytes were plated into 96 well plates (900,000 cells per well in 200 μl of RPMI 1640 supplemented with 10% fetal calf serum (FCS)) and incubated for 32 hours at 37° C., 100% humidity and 5% CO2 atmosphere. Each well was then supplemented with ^3H thymidine (1 μCi/10 μl/well) and Concanavalin A (ConA; 50 μl: 1.25 μg/ml). After 24 hours of further incubation, thymocytes were harvested and dried. Labeled ^3H thymidine incorporation was measured using a Beckman scintillation counter.

The nature of data set [6]: Body weight of mice with Erlich carcinoma, DNase with or without radiotherapy. In kind it is in vivo.
Data set [7] has as its system myocardium. The data set is described as follows: Myocardial necrosis area in deceased rats challenged with doxorubicin (FIG. 1). In kind it is in vivo. To be noted: Doxorubicin 7.5 mg/kg IV, DNase I 15 mg/kg daily IP vs placebo. The procedure:
FIG. 1 is a bar graph showing myocardial necrosis area in deceased rats challenged with sub-lethal IV doses of doxorubicin (7.5 mg/kg) and either daily IP injections of human recombinant DNase I (15 mg/kg) (black bar) or daily […] injections of placebo (WFI) (diagonal hatched bar). Serial myocardium microscopy samples from each heart were analyzed using an automated video analyzer to quantify the necrotic areas. The sum of necrotic area (Sna; nm^2) was calculated as a sum of necrotic areas in 30 serial slides from each individual autopsied heart (n=3 for DNase I-treated rats—black bar; n=5 for placebo-treated rats—diagonal hatched bar).
The hearts deceased rats challenged with sub-lethal doses of doxorubicin (7.5 mg/kg) from (Groups IV and V) were autopsied. Serial myocardium microscopy samples from each heart were analyzed using an automated video analyzer to quantify the necrotic areas. The sum of necrotic area (Sna; nm^2) was calculated as a sum of necrotic areas in 30 serial slides from each individual autopsied heart (n=3 for Group IV (FIG. 1, black bars); n=5 for Group V (FIG. 1, diagonal hatched bars)). Group IV received daily IP injections of human recombinant DNase I at 15 mg/kg dose, while Group V received daily IP injections of placebo (WFI).

For data set [8], the system named is Erlich carcinoma cells. The data set is described as follows: Survival of mice with Erlich carcinoma, DNase with or without radiotherapy. To be noted: for % Survival on Day 16: no radiotherapy. In kind it is in vivo.
Where [9] appears, read: treatment 50 mg/kg IV 2 h after Etoposide 200 mg/kg + 5-FU 400 mg/kg per os.
Where [10] appears, read: Doxorubicin 7.5 mg/kg/day IV 5 days with DNase I 15 mg/kg/day IP (Group IV) or placebo IP (Group V).
Where [11] appears, read: Doxorubicin 10.0 mg/kg/day IV 5 days with DNase I 15 mg/kg/day IP (Group VI) or placebo IP (Group VII).
Where [12] appears, read: of 16 rats, treatment 50 mg/kg IV after Etoposide 200 mg/kg + 5-FU 400 mg/kg per os.
[13] abbreviates: DNase I 15 mg/kg/day IP with Doxorubicin IV 5 days.

Like-named read-outs stand apart in the source and are kept apart here.

`Nc1ccn([C@@H]2O[C@H](CO)[C@@H](O)[C@@H]2O)c(=O)n1` [AraC, cytosine arabinoside]: in data set [1], the “Survival after implantation with L1210 leukemia cells (FIG. 4)” value was “better survival rates”.
On to `CN/C(=N/CCSCc1nc[nH]c1C)NC#N` [Cimetidine, cimetidine, reference compound], for which, in data set [2] (setting [9]), the “Total number of lesions per group” value was 40.
For `COc1cccc2c1C(=O)c1c(O)c3c(c(O)c1C2=O)C[C@@](O)(C(=O)CO)C[C@@H]3O[C@H]1C[C@H](N)[C@H](O)[C@H](C)O1` [Doxorubicin, reference compound], the “Number of dead/out of total in group” value is 5/6 in data set [3] (setting [10]) and 6/6 in data set [3] (setting [11]).
In the case of “GM-CSF: human recombinant GM-CSF (Neostim, Pharmsynthez OJSC)”, in data set [4], the “Effect on typical early phase decline in WBC count (FIG. 3)” value was “not able to prevent it”.

B1: DNase gamma: recombinant mouse DNase gamma (USCN Life Science Inc.) (protein, UniProt O55070 26-310, looked up)
Deoxyribonuclease gamma: LRLCSFNVRSFGASKKENHEAMDIIVKIIKRCDLILLMEIKDSSNNICPMLMEKLNGNSRRSTTYNYVISSRLGRNTYKEQYAFVYKEKLVSVKTKYHYHDYQDGDTDVFSREPFVVWFHSPFTAVKDFVIVPLHTTPETSVKEIDELVDVYTDVRSQWKTENFIFMGDFNAGCSYVPKKAWQNIRLRTDPKFVWLIGDQEDTTVKKSTSCAYDRIVLCGQEIVNSVVPRSSGVFDFQKAYDLSEEEALDVSDHFPVEFKLQSSRAFTNNRKSVSLKKRKKGNRS
Consider B1, for which the “Effect on taxane-induced suppression of thymocytes' proliferative activity” value in data set [5] is recorded as “ameliorates taxane-induced suppression”.

B2: human recombinant DNase I: human recombinant DNase I (Pharmsynthez OJSC), deoxyribonuclease enzyme (protein, UniProt P24855 23-282, looked up)
Deoxyribonuclease-1: LKIAAFNIQTFGETKMSNATLVSYIVQILSRYDIALVQEVRDSHLTAVGKLLDNLNQDAPDTYHYVVSEPLGRNSYKERYLFVYRPDQVSAVDSYYYDDGCEPCGNDTFNREPAIVRFFSRFTEVREFAIVPLHAAPGDAVAEIDALYDVYLDVQEKWGLEDVMLMGDFNAGCSYVRPSQWSSIRLWTSPTFQWLIPDSADTTATPTHCAYDRIVVAGMLLRGAVVPDSALPFNFQAAYGLSDQLAQAISDHYPVEVMLK
Consider B2, for which the figures for the “Total number of lesions per group” value in data set [2] (treatment 1.5 mg/kg IV 2 h after Etoposide 200 mg/kg + 5-FU 400 mg/kg per os) and in data set [2] (setting [9]) were 60 and 16, respectively. Besides, in data set [2] (DNase I 50 mg/kg IV, rats treated with etoposide and 5-FU), the “Achieved protection compared to 1.5 mg/kg DNase I dose and 50 mg/kg dose of cimetidine” value is on record as “significantly superior”. Moreover, the “Number of lesion free animals” value was found to be 5 in data set [2] (of 16 rats, treatment 1.5 mg/kg IV after Etoposide 200 mg/kg + 5-FU 400 mg/kg per os) and 12 in data set [2] (setting [12]). In data set [2] (setting [12]), the “Number of lesion free animals (percent)” value is 75%. Also, the “Effect on chemotherapy-induced ulceration” value in data set [2] (rats treated with etoposide and 5-FU, dose-dependent (1.5 and 50 mg/kg IV)) was “suppresses chemotherapy-induced ulceration”. Besides, the “Effect on lethality of doxorubicin” value in data set [3] (setting [13]) is listed as “suppresses the lethality of doxorubicin”. In addition, in data set [3] (setting [13]), the “Effect on life span of rats challenged with sub-lethal doses of doxorubicin” value was “increases the life span”. In addition, the “Number of dead/out of total in group” value in data set [3] (setting [10]) is 3/6; in data set [3] (setting [11]), 6/6. The “Change in Median Body Weight on Day 16” value in data set [6] (Group 4: radiotherapy 200 cGy per day for 5 days plus DNAse I 20 mg/kg/day intramuscularly) was determined as 0 g. Besides, in data set [6] (mice with Erlich carcinoma, radiotherapy plus DNase I), the “Effect on body weight loss induced by radiotherapy” value is on record as “clearly prevents the body weight loss”. Moreover, the “Effect on myocardial necrosis area (FIG. 1)” value in data set [7] is reported as “decreases the myocardial necrosis area”. Moreover, in data set [4] (cyclophosphamide 200 mg/kg IP Day 1, DNase I 25 mg/kg/day IV Days 2-5), the “Effect on neutropenia induced by cyclophosphamide (FIG. 3)” value is “ameliorates neutropenia”. Besides, the “Effect on typical early phase decline in WBC count (FIG. 3)” value in data set [4] is “prevents the typical early phase decline in WBC count”. Also, the “Survival rates versus non-treated mice” value in data set [8] (DNase I alone (Groups 2 and 3)) is recorded as “better survival rates”. Further, the “% Survival on Day 16” value in data set [8] (Group 2: DNAse I 20 mg/kg/day intramuscularly in 2 daily doses) is reported as 40%; in data set [8] (Group 3: DNAse I 40 mg/kg/day intramuscularly in 2 daily doses), 50%. For the same molecule, the “Survival of combination of radiation therapy and DNase versus either treatment alone” value in data set [8] (Groups 4 and 5, dose-dependent on DNase) is reported as “clear survival advantage”.
